Target: T1, HIC2 ZF2-5 (Homo sapiens, UniProt Q96JB3 503-615)
T1 sequence: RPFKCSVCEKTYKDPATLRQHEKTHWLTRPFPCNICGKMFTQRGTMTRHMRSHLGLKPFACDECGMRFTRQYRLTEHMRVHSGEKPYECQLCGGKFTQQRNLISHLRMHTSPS
Assay: X-ray crystallography

B1: +55 enhancer HIC2 motif-2/GATA 16-mer (dsDNA)
DNA 1: AGATAATGCCAACAGT
DNA 2: ACTGTTGGCATTATCT
- binding result: binds

Reference: publication PMC9940634
